Target: HLA-A*11:01 heavy chain with β2-microglobulin (human)

“SSCSS, N-terminal 5-mer of EBV LMP2(340–349) (peptide)” was tested, and the melting temperature (Tm) of the pHLA complex refolded with SSCSS + SCPLSK (m11 + m10), thermofluor thermal shift assay was 49.7 °C.
For “SSCS, N-terminal 4-mer of EBV LMP2(340–349) (peptide)”, the melting temperature (Tm) of the pHLA complex refolded with SSCS + SCPLSK (m9 + m10), thermofluor thermal shift assay was 50.3 °C.
In the case of “SSCSSC, EBV LMP2(340–345), N-terminal 6-mer (peptide)”, the melting temperature (Tm) of the pHLA complex refolded with SSCSSC + SCPLSK (m13 + m10), thermofluor thermal shift assay was 48.7 °C and the melting temperature (Tm) of the pHLA complex refolded with SSCSSC + SSCPLSK (m13 + m5), thermofluor thermal shift assay was 49.4 °C.
